In the supplement of paper PMC10065799, “High-throughput profiling of sequence recognition by tyrosine kinases and SH2 domains using bacterial peptide display” (eLife, 2023):

Columns and labels:
Hck = Hck (UniProt P08631); assay: phosphorylation enrichment, bacterial display (enrichment ratio); higher = better substrate or ligand; peptides without Tyr show the background
Fer (mouse) = assay: as above
AncSZ = assay: as above
c-Src = assay: as above
FGFR1 = FGFR1 (UniProt P11362); assay: as above
Fyn = Fyn (UniProt P06241); assay: as above
c-Abl (mouse) = assay: as above
EPHB1 = EPHB1 (UniProt P54762); assay: as above
FGFR3 = FGFR3 (UniProt P22607); assay: as above
MERTK = MERTK (UniProt Q12866); assay: as above
Fes = Fes (UniProt P07332); assay: as above
Jak2 = Jak2 (UniProt O60674); assay: as above
EPHB2 = EPHB2 (UniProt P29323); assay: as above
c-Src SH2 = assay: SH2 binding enrichment of the phosphorylated peptide, bacterial display (enrichment ratio); higher = better substrate or ligand; peptides without Tyr show the background
SHP2-C SH2 = assay: as above
Grb2 SH2 = Grb2 SH2 (UniProt P62993); assay: as above
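Throughout, for SH2 binding enrichment of the phosphorylated peptide, bacterial display: peptide library displayed on the E. coli surface as eCPX fusions, selected cells deep-sequenced, score is each peptide's frequency after selection divided by its frequency in the input.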
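Throughout, for phosphorylation enrichment, bacterial display: 11-residue human phosphosite peptides and single-mutation variants displayed on the E. coli surface, counted by deep sequencing, each peptide's frequency after selection divided by its frequency in the unselected input library; frequency after pTyr selection over input frequency; kinase dosed for 20-30% of maximal phosphorylation in three min.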

Chain of EPHB2 (P29323 whole entry, looked up): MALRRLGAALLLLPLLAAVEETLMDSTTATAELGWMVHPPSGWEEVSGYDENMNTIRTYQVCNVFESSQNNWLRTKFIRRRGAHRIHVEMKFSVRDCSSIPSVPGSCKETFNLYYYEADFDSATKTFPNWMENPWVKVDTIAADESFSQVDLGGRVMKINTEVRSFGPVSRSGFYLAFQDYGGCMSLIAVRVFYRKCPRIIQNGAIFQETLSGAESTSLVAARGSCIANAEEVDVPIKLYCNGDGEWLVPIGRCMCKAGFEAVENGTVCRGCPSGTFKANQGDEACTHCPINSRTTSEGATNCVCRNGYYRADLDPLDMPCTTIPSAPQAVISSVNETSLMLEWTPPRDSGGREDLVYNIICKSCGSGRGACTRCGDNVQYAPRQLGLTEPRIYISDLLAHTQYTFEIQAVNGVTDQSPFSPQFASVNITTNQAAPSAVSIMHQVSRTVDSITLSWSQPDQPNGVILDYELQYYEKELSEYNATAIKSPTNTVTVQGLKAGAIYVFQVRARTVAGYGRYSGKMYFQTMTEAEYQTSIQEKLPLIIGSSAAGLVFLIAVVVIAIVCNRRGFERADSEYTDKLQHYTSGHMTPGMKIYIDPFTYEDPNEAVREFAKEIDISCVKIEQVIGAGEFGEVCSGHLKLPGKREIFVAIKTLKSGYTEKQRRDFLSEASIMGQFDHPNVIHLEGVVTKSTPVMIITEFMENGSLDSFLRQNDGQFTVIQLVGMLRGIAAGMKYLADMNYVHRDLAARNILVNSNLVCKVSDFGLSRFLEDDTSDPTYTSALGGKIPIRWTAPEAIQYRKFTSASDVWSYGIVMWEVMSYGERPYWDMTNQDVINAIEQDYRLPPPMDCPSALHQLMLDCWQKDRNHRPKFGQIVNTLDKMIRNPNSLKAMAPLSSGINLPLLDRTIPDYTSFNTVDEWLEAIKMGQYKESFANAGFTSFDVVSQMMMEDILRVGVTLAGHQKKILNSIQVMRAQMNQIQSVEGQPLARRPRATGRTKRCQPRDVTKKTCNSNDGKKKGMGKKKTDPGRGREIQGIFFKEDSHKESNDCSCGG
Chain of EPHB1 (P54762 whole entry, looked up): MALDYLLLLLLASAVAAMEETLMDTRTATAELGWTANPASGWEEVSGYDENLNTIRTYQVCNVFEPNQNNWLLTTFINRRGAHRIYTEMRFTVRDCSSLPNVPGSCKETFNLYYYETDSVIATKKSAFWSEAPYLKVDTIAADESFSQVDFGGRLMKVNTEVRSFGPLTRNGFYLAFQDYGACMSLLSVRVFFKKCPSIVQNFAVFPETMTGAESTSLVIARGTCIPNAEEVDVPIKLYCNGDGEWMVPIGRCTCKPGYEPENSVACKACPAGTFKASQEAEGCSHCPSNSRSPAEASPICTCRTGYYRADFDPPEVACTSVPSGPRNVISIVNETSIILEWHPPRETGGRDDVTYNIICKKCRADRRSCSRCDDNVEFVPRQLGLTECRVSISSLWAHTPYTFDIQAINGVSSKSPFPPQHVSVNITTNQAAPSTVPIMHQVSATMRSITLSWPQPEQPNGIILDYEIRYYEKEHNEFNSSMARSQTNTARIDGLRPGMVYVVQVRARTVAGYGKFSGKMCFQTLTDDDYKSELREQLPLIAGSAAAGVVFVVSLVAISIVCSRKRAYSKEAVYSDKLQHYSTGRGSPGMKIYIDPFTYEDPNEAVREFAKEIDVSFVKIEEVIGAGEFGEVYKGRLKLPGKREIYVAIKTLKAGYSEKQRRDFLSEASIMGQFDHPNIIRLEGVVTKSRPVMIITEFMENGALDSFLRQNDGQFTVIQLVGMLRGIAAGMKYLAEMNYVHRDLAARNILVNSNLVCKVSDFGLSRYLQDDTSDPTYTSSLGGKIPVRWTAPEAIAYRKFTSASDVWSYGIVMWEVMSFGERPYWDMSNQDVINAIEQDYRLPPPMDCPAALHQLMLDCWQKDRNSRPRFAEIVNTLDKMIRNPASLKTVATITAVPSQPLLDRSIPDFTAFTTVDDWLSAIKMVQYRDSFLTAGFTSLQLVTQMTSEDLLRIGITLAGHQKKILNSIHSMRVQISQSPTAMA
Chain of Jak2 (O60674 whole entry, looked up): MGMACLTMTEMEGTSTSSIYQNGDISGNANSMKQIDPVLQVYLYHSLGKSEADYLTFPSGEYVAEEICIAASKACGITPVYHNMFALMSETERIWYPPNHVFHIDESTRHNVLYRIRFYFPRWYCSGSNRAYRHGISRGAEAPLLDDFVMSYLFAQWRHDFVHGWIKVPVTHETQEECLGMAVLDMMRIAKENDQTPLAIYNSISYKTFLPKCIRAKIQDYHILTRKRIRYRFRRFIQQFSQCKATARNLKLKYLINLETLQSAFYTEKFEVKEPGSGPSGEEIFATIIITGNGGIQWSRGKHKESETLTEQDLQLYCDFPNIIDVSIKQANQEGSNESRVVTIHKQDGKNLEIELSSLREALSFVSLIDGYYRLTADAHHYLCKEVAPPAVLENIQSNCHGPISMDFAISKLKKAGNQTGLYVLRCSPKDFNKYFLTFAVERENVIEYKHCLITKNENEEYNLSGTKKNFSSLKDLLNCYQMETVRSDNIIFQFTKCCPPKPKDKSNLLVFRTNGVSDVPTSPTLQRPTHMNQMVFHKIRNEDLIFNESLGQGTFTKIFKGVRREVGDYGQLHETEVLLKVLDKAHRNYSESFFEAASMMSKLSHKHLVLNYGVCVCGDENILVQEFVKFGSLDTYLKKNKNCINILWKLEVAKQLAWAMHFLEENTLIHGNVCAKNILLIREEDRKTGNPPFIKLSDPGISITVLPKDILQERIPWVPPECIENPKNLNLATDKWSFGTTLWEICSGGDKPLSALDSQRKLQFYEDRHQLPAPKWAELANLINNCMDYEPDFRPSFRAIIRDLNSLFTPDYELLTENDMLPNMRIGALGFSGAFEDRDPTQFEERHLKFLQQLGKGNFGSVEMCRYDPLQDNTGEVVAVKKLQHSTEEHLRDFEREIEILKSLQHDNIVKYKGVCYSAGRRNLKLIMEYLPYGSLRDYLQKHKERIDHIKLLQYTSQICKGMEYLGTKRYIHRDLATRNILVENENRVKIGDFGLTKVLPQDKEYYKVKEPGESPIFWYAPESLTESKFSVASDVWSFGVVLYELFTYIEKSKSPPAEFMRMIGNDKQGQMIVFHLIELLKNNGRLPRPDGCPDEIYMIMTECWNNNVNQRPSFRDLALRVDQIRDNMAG
Chain of FGFR1 (P11362 whole entry, looked up): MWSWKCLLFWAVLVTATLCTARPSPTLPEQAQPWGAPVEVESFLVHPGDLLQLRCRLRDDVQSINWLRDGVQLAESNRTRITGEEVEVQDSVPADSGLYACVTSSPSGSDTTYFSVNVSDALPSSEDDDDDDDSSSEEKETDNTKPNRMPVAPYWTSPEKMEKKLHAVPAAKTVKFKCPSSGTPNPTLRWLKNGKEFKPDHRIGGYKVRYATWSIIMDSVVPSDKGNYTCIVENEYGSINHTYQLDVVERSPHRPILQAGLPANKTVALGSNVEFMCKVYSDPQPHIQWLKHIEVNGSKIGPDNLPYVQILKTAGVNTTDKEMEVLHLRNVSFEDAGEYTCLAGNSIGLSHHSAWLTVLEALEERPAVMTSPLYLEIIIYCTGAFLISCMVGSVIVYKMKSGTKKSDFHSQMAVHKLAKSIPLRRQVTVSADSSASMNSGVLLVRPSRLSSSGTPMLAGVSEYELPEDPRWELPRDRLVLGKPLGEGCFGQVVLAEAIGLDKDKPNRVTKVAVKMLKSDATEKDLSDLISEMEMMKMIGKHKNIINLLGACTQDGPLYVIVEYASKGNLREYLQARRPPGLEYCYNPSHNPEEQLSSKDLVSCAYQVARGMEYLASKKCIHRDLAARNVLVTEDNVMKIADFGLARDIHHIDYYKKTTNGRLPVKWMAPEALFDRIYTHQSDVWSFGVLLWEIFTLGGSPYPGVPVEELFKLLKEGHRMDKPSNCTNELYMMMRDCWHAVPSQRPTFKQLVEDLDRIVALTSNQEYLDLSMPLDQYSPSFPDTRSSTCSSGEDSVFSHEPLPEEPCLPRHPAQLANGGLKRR
Chain of MERTK (Q12866 whole entry, looked up): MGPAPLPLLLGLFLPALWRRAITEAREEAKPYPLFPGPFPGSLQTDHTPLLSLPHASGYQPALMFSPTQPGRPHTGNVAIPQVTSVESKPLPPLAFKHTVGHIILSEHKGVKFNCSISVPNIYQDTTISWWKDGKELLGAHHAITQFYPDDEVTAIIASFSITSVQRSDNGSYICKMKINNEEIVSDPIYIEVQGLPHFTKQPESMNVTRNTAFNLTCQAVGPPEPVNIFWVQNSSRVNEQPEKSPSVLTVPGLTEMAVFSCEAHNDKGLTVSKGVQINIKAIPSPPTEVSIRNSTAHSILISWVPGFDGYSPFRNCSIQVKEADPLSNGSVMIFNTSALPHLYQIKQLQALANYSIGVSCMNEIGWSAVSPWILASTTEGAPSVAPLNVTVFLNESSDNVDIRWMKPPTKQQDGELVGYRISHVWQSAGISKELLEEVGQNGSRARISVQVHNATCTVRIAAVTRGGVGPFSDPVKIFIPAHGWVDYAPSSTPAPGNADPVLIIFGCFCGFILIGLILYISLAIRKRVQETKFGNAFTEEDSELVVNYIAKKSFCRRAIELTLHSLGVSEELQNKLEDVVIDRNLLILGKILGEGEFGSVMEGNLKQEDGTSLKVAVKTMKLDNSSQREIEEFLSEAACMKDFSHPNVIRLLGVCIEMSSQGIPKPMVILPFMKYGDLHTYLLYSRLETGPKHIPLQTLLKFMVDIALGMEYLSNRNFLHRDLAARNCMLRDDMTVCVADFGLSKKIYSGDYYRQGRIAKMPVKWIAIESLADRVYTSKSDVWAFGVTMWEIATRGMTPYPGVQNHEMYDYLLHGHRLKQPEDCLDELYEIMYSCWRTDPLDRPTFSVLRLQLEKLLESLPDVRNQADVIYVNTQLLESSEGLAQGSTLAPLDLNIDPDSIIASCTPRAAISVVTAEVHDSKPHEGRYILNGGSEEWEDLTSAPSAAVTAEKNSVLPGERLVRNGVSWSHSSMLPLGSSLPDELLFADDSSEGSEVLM

Sequence | SH2 binding enrichment (c-Src SH2) | SH2 binding enrichment (SHP2-C SH2) | SH2 binding enrichment (Grb2 SH2) | phosphorylation enrichment (Hck) | phosphorylation enrichment (Fer (mouse)) | phosphorylation enrichment (AncSZ) | phosphorylation enrichment (c-Src) | phosphorylation enrichment (FGFR1) | phosphorylation enrichment (Fyn) | phosphorylation enrichment (c-Abl (mouse)) | phosphorylation enrichment (EPHB1) | phosphorylation enrichment (FGFR3) | phosphorylation enrichment (MERTK) | phosphorylation enrichment (Fes) | phosphorylation enrichment (Jak2) | phosphorylation enrichment (EPHB2)
ASYGPNTRVQS [FOXL2_Y258_Y258N] | 0.543 | 0.582 | 0.872 | 0.454 | 0.448 | 0.537 | 0.478 | 0.444 | 0.41 | 0.559 | 0.474 | 0.407 | 0.435 | 0.596 | 0.515 | 0.407
ATARPYRPYII [LRP5_Y1528] | 0.784 | 0.86 | 1.04 | 0.413 | 0.482 | 0.675 | 0.581 | 0.396 | 0.55 | 0.688 | 0.457 | 0.545 | 0.468 | 0.793 | 0.465 | 0.362
AVDMTYDGHPV [FLNB_Y1020_V1018M] | 0.461 | 0.662 | 0.877 | 3.87 | 0.89 | 1.19 | 3.61 | 0.576 | 3.3 | 0.768 | 1.67 | 0.737 | 0.593 | 0.926 | 0.765 | 4.79
AVLSLYASGRN [ACTA1_Y145_T150N] | 0.669 | 0.976 | 0.867 | 0.688 | 0.549 | 0.858 | 0.419 | 0.436 | 0.44 | 0.737 | 0.519 | 0.581 | 0.388 | 0.989 | 0.958 | 0.557
AVLVQYYMEHH [PTPN11_Y80_E76V] | 1.18 | 1.87 | 1.52 | 0.875 | 0.516 | 0.987 | 0.596 | 0.753 | 0.673 | 0.708 | 2.43 | 0.868 | 0.89 | 1.21 | 0.821 | 1.32
AYRHGYFDEEM [PLEC_Y2971_R2969H] | 0.634 | 0.771 | 0.893 | 0.643 | 0.526 | 1.03 | 0.461 | 0.676 | 0.593 | 0.742 | 0.664 | 0.657 | 0.5 | 1.05 | 0.827 | 0.631
CASQLCPRHKH [DCTN4_Y263_Y263C] | 1.43 | 1.2 | 1.19 | 0.326 | 0.367 | 0.477 | 0.312 | 0.33 | 0.366 | 0.451 | 0.305 | 0.332 | 0.358 | 0.533 | 0.495 | 0.393
CCNHPYRINGA [CHD7_Y1256_L1257R] | 0.51 | 0.537 | 0.861 | 0.464 | 0.454 | 0.505 | 0.64 | 0.575 | 0.542 | 0.434 | 0.38 | 0.564 | 0.404 | 0.621 | 0.396 | 0.46
CERLPYDASKW [FLT1_Y815] | 0.632 | 0.72 | 0.746 | 0.525 | 0.49 | 0.951 | 0.464 | 0.523 | 0.45 | 0.824 | 0.589 | 0.688 | 0.409 | 1.13 | 1.01 | 0.46
CFVFFYSFLLK [PTEN_Y178_R173C_YF] | 0.789 | 1.8 | 1.78 | 0.578 | 0.487 | 0.997 | 0.519 | 0.423 | 0.459 | 0.86 | 0.473 | 0.865 | 0.557 | 1.03 | 0.987 | 0.72
CGASGYSATST [CERT1_Y143_S138C] | 0.556 | 0.756 | 0.741 | 0.51 | 0.675 | 1.02 | 0.489 | 0.457 | 0.476 | 0.746 | 0.55 | 0.872 | 0.523 | 1.08 | 1.06 | 0.706
CKRQFYLYKGK [RSPO4_Y112] | 0.856 | 1.15 | 1.84 | 0.43 | 0.431 | 0.836 | 0.312 | 0.427 | 0.432 | 0.438 | 0.333 | 0.704 | 0.331 | 0.926 | 0.746 | 0.49
CPFNLYAEQFS [HGD_Y40_L44F_YF] | 0.66 | 0.519 | 0.942 | 1.08 | 0.923 | 1.45 | 1.49 | 0.747 | 0.834 | 1.16 | 2.19 | 0.847 | 1.6 | 1.54 | 1.34 | 1.29
CRPPFYHRNCM [HGD_Y334_F329C_YF] | 1.36 | 1.4 | 1.27 | 0.48 | 0.375 | 0.913 | 0.901 | 0.435 | 0.492 | 0.58 | 0.474 | 0.635 | 0.452 | 0.776 | 0.606 | 0.555
CTLLPYYSARV [DGKE_Y269] | 1.81 | 0.889 | 0.74 | 0.604 | 0.497 | 1.03 | 0.579 | 0.485 | 0.464 | 0.735 | 0.601 | 0.699 | 0.508 | 1.04 | 0.937 | 0.655
CWAVKYLQMVG [AVPR2_Y117_R113W] | 0.92 | 1.2 | 1.26 | 0.466 | 0.504 | 1.37 | 0.434 | 0.495 | 0.413 | 0.817 | 0.622 | 0.703 | 0.386 | 1.39 | 1.26 | 0.832
DAAEDYAEGVC [DHODH_Y194_R199C] | 0.609 | 0.598 | 0.816 | 0.559 | 0.765 | 1.31 | 0.559 | 0.658 | 0.566 | 0.917 | 0.801 | 0.895 | 0.492 | 1.24 | 1.19 | 0.713
DAGTDYVGISR [FREM2_Y2061] | 0.481 | 0.758 | 0.938 | 0.545 | 0.459 | 0.606 | 0.459 | 0.541 | 0.482 | 0.54 | 0.445 | 0.621 | 0.414 | 0.64 | 0.496 | 0.492
DAVAVYDGKIS [SH2D1A_Y7_H8D] | 0.47 | 0.999 | 0.735 | 2.02 | 0.456 | 0.721 | 0.83 | 0.44 | 0.655 | 0.728 | 0.589 | 0.565 | 0.498 | 0.988 | 0.778 | 0.622
DAVKHYMQFRK [CNGA2_Y395] | 0.461 | 0.722 | 0.847 | 0.555 | 0.366 | 0.46 | 0.441 | 0.344 | 0.591 | 0.54 | 0.359 | 0.427 | 0.397 | 0.558 | 0.44 | 0.363

The next lines start with results.

SH2 binding enrichment (c-Src SH2) | SH2 binding enrichment (SHP2-C SH2) | SH2 binding enrichment (Grb2 SH2) | Sequence | phosphorylation enrichment (Hck) | phosphorylation enrichment (Fer (mouse)) | phosphorylation enrichment (AncSZ) | phosphorylation enrichment (c-Src) | phosphorylation enrichment (FGFR1) | phosphorylation enrichment (Fyn) | phosphorylation enrichment (c-Abl (mouse)) | phosphorylation enrichment (EPHB1) | phosphorylation enrichment (FGFR3) | phosphorylation enrichment (MERTK) | phosphorylation enrichment (Fes) | phosphorylation enrichment (Jak2) | phosphorylation enrichment (EPHB2)
3.31 | 0.899 | 0.866 | AVVEPYNSILT [TUBA1A_Y185] | 0.43 | 0.377 | 0.686 | 0.453 | 0.438 | 0.434 | 0.534 | 0.489 | 0.496 | 0.415 | 0.83 | 0.802 | 0.365
0.519 | 0.678 | 0.795 | CEHRGSLYLAI [TEK_Y897_Y897S] | 0.606 | 0.573 | 1.13 | 0.891 | 0.609 | 0.552 | 0.933 | 0.714 | 0.847 | 1.24 | 1.24 | 1.16 | 0.585
0.518 | 0.556 | 0.731 | CEQELYSQLVY [WAS_Y102_W97C] | 6.75 | 11.2 | 1.9 | 5.28 | 3.8 | 6.54 | 1.14 | 4.86 | 3.67 | 5.03 | 1.81 | 1.22 | 5.74
0.442 | 0.536 | 0.838 | CGLPRYRWLTH [TSPAN12_Y143_Y138C] | 0.525 | 0.438 | 0.848 | 0.357 | 0.435 | 0.707 | 0.453 | 0.47 | 0.476 | 0.461 | 0.929 | 0.669 | 0.645
1.06 | 0.784 | 2.08 | CPPELYALMSD [ZAP70_Y569] | 1.08 | 1.19 | 1.57 | 0.828 | 0.905 | 0.612 | 0.681 | 3.39 | 1 | 3.54 | 1.31 | 0.892 | 1.13
0.632 | 0.711 | 0.729 | CTTIHCNYMCN [TP53_Y234_Y234C] | 0.503 | 0.599 | 1.06 | 1.14 | 0.41 | 0.403 | 0.775 | 0.784 | 0.731 | 0.395 | 1.15 | 0.921 | 0.612
2.73 | 5.53 | 1.33 | CTTIHYHYMCN [TP53_Y234_N235H] | 0.551 | 0.523 | 0.964 | 0.414 | 0.568 | 0.561 | 0.661 | 0.551 | 0.667 | 0.446 | 0.963 | 0.668 | 0.425
0.772 | 0.788 | 0.96 | CTTIHYNFMGN [TP53_Y234_C238G_YF] | 0.478 | 0.472 | 0.926 | 0.402 | 0.542 | 0.464 | 0.699 | 0.565 | 0.523 | 0.532 | 0.876 | 0.73 | 0.487
1.93 | 1.59 | 1.94 | CTTIHYNFVCN [TP53_Y234_M237V_YF] | 0.54 | 0.694 | 0.998 | 0.532 | 0.694 | 0.539 | 0.754 | 0.678 | 0.769 | 0.508 | 1.11 | 1.01 | 0.654
1.06 | 1.13 | 0.951 | CTTIHYNYMFN [TP53_Y234_C238F] | 0.498 | 0.757 | 1.14 | 0.522 | 0.657 | 0.555 | 0.926 | 0.672 | 0.812 | 0.681 | 1.21 | 1 | 0.641
7.58 | 4.2 | 1.36 | CTTIHYNYVCN [TP53_Y234_M237V] | 0.514 | 0.696 | 0.904 | 0.455 | 0.685 | 0.556 | 0.595 | 0.616 | 0.648 | 0.498 | 0.949 | 0.828 | 0.645
2.62 | 4.43 | 1.88 | CTTIHYSFMCN [TP53_Y234_N235S_YF] | 0.559 | 0.942 | 1.08 | 0.544 | 0.636 | 0.563 | 0.828 | 0.568 | 0.666 | 0.843 | 1 | 0.734 | 0.572
0.517 | 0.576 | 0.76 | CVVVPYEPPEV [TP53_Y220_S215C] | 0.599 | 0.854 | 1.65 | 0.557 | 0.574 | 0.568 | 1.01 | 0.864 | 1.03 | 0.462 | 1.54 | 1.38 | 0.641
